Laboratory results reported in PMC8509203, “Members of the GADD45 Protein Family Show Distinct Propensities to form Toxic Amyloid-Like Aggregates in Physiological Conditions” (International Journal of Molecular Sciences, 2021).

Legend:
[1] = target: MKK7 kinase domain (Homo sapiens) (UniProt O14733); experiment: SPR; conditions: cited from earlier work
[2] = target: T1, kinase domain of human MKK7 (mitogen-activated protein kinase kinase 7) (human, UniProt O14733 120-380); experiment: BLI; biotinylated GADD45 proteins immobilised on super streptavidin (SSA) biosensors (2.5 nm), Octet RED96; MKK7_KD in solution at 9-300 nM; 0.01 M HEPES pH 7.4, 0.15 M NaCl, 3 mM EDTA, 0.005% Surfactant P20, 2 mM DTT; 1:1 binding model; conditions: both partners purified
T1 construct: MKK7, human, kinase domain; also called MKK7_KD; source: recombinant, obtained as His-fusion protein as previously reported
T1 sequence (looked up): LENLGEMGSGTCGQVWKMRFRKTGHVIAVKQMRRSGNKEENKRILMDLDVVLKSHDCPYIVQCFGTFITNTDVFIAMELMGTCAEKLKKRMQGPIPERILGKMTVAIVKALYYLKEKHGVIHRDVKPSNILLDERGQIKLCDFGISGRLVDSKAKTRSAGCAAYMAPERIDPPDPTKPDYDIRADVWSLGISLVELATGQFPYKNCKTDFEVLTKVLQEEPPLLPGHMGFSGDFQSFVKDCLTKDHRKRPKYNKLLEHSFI

[3] = target: the molecule itself; experiment: SEC-MALS; SEC-LS, Superdex S200 10/30 with miniDAWN TREOS; 0.5-1.0 mg loaded; 20 mM Tris-HCl pH 7.5, 100 mM NaCl, 5 mM DTT, 5% glycerol (the results and the legend name only 5 mM DTT in 20 mM Tris-HCl pH 7.5); oligomeric state of the native protein

In the case of GADD45β (from UniProt O75293), the Kd [1] is given as 6 nM.

B1: GADD45β (growth arrest and DNA damage-inducible 45 beta) (natural protein, human, UniProt O75293 1-160, looked up)
chain: MTLEELVACDNAAQKMQTVTAAVEELLVAAQRQDRLTVGVYESAKLMNVDPDSVVLCLLAIDEEEEDDIALQIHFTLIQSFCCDNDINIVRVSGMQRLAQLLGEPAETQGTTEARDLHCLLVTNPHTDAWKSHGLVEVASYCEESRGNNQWVPYISLQER
modifications: biotin (EZ-Link Sulfo-NHS-LC-Biotinylation Kit), in the BLI experiment only
notes: GADD45β, human; cloned into pET-28a+ as previously reported; Monomeric by SEC-LS; The same construct was used without biotin in SEC-LS and biotinylated in BLI; also called Human GADD45β; source: E. coli BL21(DE3), purified (Ni2+-NTA, Superdex 200 SEC)
With B1 the Kd [2] was 2 nM.

B2: GADD45γ (growth arrest and DNA damage-inducible 45 gamma) (natural protein, human, UniProt O95257 1-159, looked up)
chain: MTLEEVRGQDTVPESTARMQGAGKALHELLLSAQRQGCLTAGVYESAKVLNVDPDNVTFCVLAAGEEDEGDIALQIHFTLIQAFCCENDIDIVRVGDVQRLAAIVGAGEEAGAPGDLHCILISNPNEDAWKDPALEKLSLFCEESRSVNDWVPSITLPE
modifications: biotin (EZ-Link Sulfo-NHS-LC-Biotinylation Kit), in the BLI experiment only
notes: GADD45γ, human; gene purchased from Sigma Aldrich, cloned into pETM-13 with BamHI and XhoI; Dimeric by SEC-LS; The same construct was used without biotin in SEC-LS and biotinylated in BLI; source: E. coli BL21(DE3), purified (Ni2+-NTA, Superdex 200 SEC)
In the case of B2, the “stoichiometry N” value [3] is reported as 2.
